Results reported in patent US11873336 (TENEOBIO, dated 2024).
Substitutions are numbered along the chain they refer to.

T1: human CD22 on CD22-positive Burkitt's lymphoma cells (Daudi, Raji, Ramos) (human, UniProt P20273 20-847)
T1 construct: whole, on cells; also called CD22+ cells; CD22 positive cells
T1 sequence (looked up): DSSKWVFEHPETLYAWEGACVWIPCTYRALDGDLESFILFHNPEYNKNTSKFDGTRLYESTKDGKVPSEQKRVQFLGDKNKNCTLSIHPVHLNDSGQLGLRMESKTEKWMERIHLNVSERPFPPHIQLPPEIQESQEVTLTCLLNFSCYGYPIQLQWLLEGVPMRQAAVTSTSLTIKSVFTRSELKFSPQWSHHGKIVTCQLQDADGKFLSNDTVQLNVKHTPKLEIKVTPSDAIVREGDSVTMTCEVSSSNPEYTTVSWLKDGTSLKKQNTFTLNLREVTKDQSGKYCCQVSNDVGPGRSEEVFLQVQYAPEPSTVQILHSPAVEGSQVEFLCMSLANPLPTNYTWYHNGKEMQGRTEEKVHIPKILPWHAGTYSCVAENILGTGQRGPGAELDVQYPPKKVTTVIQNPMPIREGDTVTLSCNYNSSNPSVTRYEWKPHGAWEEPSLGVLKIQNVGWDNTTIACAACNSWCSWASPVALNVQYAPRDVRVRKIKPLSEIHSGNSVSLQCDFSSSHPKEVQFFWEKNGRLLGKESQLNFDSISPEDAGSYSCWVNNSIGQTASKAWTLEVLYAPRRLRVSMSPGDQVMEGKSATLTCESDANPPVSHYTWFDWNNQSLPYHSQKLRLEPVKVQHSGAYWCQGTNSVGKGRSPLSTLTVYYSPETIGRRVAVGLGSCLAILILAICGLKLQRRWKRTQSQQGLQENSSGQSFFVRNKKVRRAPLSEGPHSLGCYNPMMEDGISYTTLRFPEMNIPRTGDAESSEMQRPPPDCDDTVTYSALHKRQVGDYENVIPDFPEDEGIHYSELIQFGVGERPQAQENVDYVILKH

T2: human CD22 protein (recombinant CD22 extracellular domain) (human, UniProt P20273 20-687)
T2 construct: extracellular domain; also called SIGLEC-2
T2 sequence (looked up): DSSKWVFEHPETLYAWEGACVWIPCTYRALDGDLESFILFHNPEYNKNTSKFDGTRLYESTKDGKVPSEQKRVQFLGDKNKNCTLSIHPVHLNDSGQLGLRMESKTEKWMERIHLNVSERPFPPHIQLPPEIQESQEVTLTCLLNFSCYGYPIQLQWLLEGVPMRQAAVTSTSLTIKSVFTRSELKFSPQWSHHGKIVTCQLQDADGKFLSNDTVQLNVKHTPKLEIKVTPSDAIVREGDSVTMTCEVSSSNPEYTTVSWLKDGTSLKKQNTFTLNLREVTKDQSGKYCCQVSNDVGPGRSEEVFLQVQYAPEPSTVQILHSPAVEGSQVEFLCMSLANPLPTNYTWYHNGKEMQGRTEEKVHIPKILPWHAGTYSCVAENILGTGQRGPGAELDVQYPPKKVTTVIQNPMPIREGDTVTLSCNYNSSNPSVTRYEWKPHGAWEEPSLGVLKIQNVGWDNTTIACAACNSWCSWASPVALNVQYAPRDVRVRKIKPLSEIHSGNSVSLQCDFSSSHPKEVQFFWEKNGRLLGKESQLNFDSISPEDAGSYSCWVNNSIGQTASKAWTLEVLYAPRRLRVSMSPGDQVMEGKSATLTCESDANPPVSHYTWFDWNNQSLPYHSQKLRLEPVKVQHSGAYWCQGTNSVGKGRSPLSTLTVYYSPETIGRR

B1: anti-CD22 heavy chain-only antibody with the VH of SEQ ID NO: 45 (antibody, V domains shown)
VH: QLQLQESGPGLVKPSETLSLTCTVSGDSISSGDYYWGWIRQPPGKGLEWIGSIYYSGSTYYNPSLKSRVTISVDTSKNQFSLKLSSVTAADTAVYYCTREDSSSWRSRGQGTLVTVSS
notes: Heavy chain-only antibody (UniAb), human IgG
B2: anti-CD22 heavy chain-only antibody with the VH of SEQ ID NO: 80 (antibody, V domains shown)
VH: B1 VH with D27G, G32S, D33S, S52H, S58A, S67N, K77R, K83N, S104N
notes: as for B1
B3: anti-CD22 heavy chain-only antibody with the VH of SEQ ID NO: 63 (antibody, V domains shown)
VH: B1 VH with D27G, G32S, D33S
notes: as for B1
B4: anti-CD22 heavy chain-only antibody with the VH of SEQ ID NO: 60 (antibody, V domains shown)
VH: B1 VH with D27G, G32S, D33S, T98A
notes: as for B1
B5: anti-CD22 heavy chain-only antibody with the VH of SEQ ID NO: 48 (antibody, V domains shown)
VH: B1 VH with Q41H, S52H, S58A, S67N
notes: as for B1
B6: anti-CD22 heavy chain-only antibody with the VH of SEQ ID NO: 50 (antibody, V domains shown)
VH: B1 VH with S52N, S58A, S67N, E100D, S104N
notes: as for B1
B7: anti-CD22 heavy chain-only antibody with the VH of SEQ ID NO: 52 (antibody, V domains shown)
VH: B1 VH with S104N
notes: as for B1
B8: anti-CD22 heavy chain-only antibody with the VH of SEQ ID NO: 57 (antibody, V domains shown)
VH: B1 VH with D27G, G32S, D33S, S52H, S58V, S67N, E100D, S104N
notes: as for B1
B9: anti-CD22 heavy chain-only antibody with the VH of SEQ ID NO: 71 (antibody, V domains shown)
VH: B1 VH with D27G, G32S, D33S, S58A, S67N, K77R, K83N, S104N
notes: as for B1
B10: anti-CD22 heavy chain-only antibody with the VH of SEQ ID NO: 74 (antibody, V domains shown)
VH: B1 VH with P42S, G44E, S52H, S58V, S67N, T98K, E100D, S104N
notes: as for B1
B11: anti-CD22 heavy chain-only antibody with the VH of SEQ ID NO: 67 (antibody, V domains shown)
VH: B1 VH with D27G, S30T, G32S, D33S, E100D, S104N
notes: as for B1
B12: anti-CD22 heavy chain-only antibody with the VH of SEQ ID NO: 54 (antibody, V domains shown)
VH: B1 VH with D27G, S52H, S58A, S67N, K77R, S104N
notes: as for B1
B13: anti-CD22 heavy chain-only antibody with the VH of SEQ ID NO: 68 (antibody, V domains shown)
VH: B1 VH with D27G, G32S, D33S, S58V, S67N, S104N
notes: as for B1
B14: anti-CD22 heavy chain-only antibody with the VH of SEQ ID NO: 61 (antibody, V domains shown)
VH: B1 VH with D27G, G32S, D33S, S58A, S67N
notes: as for B1
B15: anti-CD22 heavy chain-only antibody with the VH of SEQ ID NO: 65 (antibody, V domains shown)
VH: B1 VH with D27G, G32S, D33S, S58A, S67N, K77R, K83N
notes: as for B1
B16: anti-CD22 heavy chain-only antibody with the VH of SEQ ID NO: 73 (antibody, V domains shown)
VH: B1 VH with D27G, G32S, D33S, S58V, S67N
notes: as for B1
B17: anti-CD22 heavy chain-only antibody with the VH of SEQ ID NO: 53 (antibody, V domains shown)
VH: B1 VH with S56T, S104N
notes: as for B1
B18: anti-CD22 heavy chain-only antibody with the VH of SEQ ID NO: 78 (antibody, V domains shown)
VH: QLQLQESDPGLVKPSETLSLTCTVSGGSISSSSHYWGWIRQPPGKGLEWIGHIYYSGATYYNPSLKNRVTISVDTSRNQFSLNLSSVTAADTAVYYCTREDSSNWRSRGQGTLVTVSS
notes: as for B1
B19: anti-CD22 heavy chain-only antibody with the VH of SEQ ID NO: 75 (antibody, V domains shown)
VH: B18 VH with D8G, H34Y, R77K, N83K, N104S
notes: as for B1
B20: anti-CD22 heavy chain-only antibody with the VH of SEQ ID NO: 47 (antibody, V domains shown)
VH: B1 VH with D33G, S67N
notes: as for B1
B21: anti-CD22 heavy chain-only antibody with the VH of SEQ ID NO: 62 (antibody, V domains shown)
VH: B18 VH with D8G, H34Y, N104S
notes: as for B1
B22: anti-CD22 heavy chain-only antibody with the VH of SEQ ID NO: 49 (antibody, V domains shown)
VH: B1 VH with S52N, S58A, S67N, S104N
notes: as for B1
B23: anti-CD22 heavy chain-only antibody with the VH of SEQ ID NO: 70 (antibody, V domains shown)
VH: B1 VH with K13R, D27G, G32S, D33S
notes: as for B1
B24: anti-CD22 heavy chain-only antibody with the VH of SEQ ID NO: 72 (antibody, V domains shown)
VH: B18 VH with D8G, H34Y, H52S, V94M
notes: as for B1
B25: anti-CD22 heavy chain-only antibody with the VH of SEQ ID NO: 46 (antibody, V domains shown)
VH: B1 VH with S52N, S58A, S67N
notes: as for B1
B26: anti-CD22 heavy chain-only antibody with the VH of SEQ ID NO: 66 (antibody, V domains shown)
VH: B1 VH with D27G, G32S, D33S, S67N, S104N
notes: as for B1
B27: anti-CD22 heavy chain-only antibody with the VH of SEQ ID NO: 76 (antibody, V domains shown)
VH: B18 VH with D8G, H34Y, H52S, I53V, S56T, R77K, N83K, E100D
notes: as for B1
B28: anti-CD22 heavy chain-only antibody with the VH of SEQ ID NO: 79 (antibody, V domains shown)
VH: B18 VH with D8G, H34Y, H52S, A58S, E100D
notes: as for B1
B29: anti-CD22 heavy chain-only antibody with the VH of SEQ ID NO: 58 (antibody, V domains shown)
VH: B1 VH with D27G, G32S, D33S, K77R, K83N
notes: as for B1
B30: anti-CD22 heavy chain-only antibody with the VH of SEQ ID NO: 69 (antibody, V domains shown)
VH: B1 VH with D27G, G32S, D33S, S104N
notes: as for B1
B31: anti-CD22 heavy chain-only antibody with the VH of SEQ ID NO: 51 (antibody, V domains shown)
VH: B1 VH with D27G, G32S, D33S, E100D, S104N
notes: as for B1
B32: anti-CD22 heavy chain-only antibody with the VH of SEQ ID NO: 56 (antibody, V domains shown)
VH: B18 VH with D8G, H34Y, A58V, R77K, N83K, V94A, E100D
notes: as for B1
B33: anti-CD22 heavy chain-only antibody with the VH of SEQ ID NO: 64 (antibody, V domains shown)
VH: B18 VH with D8G, H34Y, R77K, N83K, E100D
notes: as for B1
B34: anti-CD22 heavy chain-only antibody with the VH of SEQ ID NO: 59 (antibody, V domains shown)
VH: B1 VH with G32S, D33S, S104N
notes: as for B1

molecular target: T1, human CD22 on CD22-positive Burkitt's …; assay: cell binding, Daudi cells
Method: Binding to CD22 positive cells was assessed by flow cytometry (Guava easyCyte 8HT, EMD Millipore) using the Daudi cell line (ATCC). Briefly, 100,000 target cells were stained with a dilution series of purified UniAbs™ for 30 minutes at 4° C. Following incubation, the cells were washed twice with flow cytometry buffer (1×PBS, 1% BSA, 0.1% NaN_3) and stained with goat F(ab')2 anti-human IgG conjugated to R-phycoerythrin (PE) (Southern Biotech, cat. #2042-09) to detect cell-bound antibodies. After a 20-minute incubation at 4° C., the cells were washed twice with flow cytometry buffer and then mean fluorescence intensity (MFI) was measured by flow cytometry. EC50 values were calculated using GraphPad Prism 7. Binding to *cynomolgus* CD22 positive cells was determined using the same protocol with the following modifications: the target cells were from CHO cells stably transfected to express the extracellular domain of *cynomolgus* CD22 and each antibody was tested at a single concentration (~1.7 µg/mL) so EC50 values were not calculated.

| binding result | Binder |
| --- | --- |
| binds | B1 |
| binds | B2 |
| binds | B3 |
| binds | B4 |
| binds | B5 |
| binds | B6 |
| binds | B7 |
| binds | B8 |
| binds | B9 |
| binds | B10 |
| binds | B11 |
| binds | B12 |
| binds | B13 |
| binds | B14 |
| binds | B15 |
| binds | B16 |
| binds | B17 |

| binding result | Binder |
| --- | --- |
| binds | B18 |
| binds | B19 |
| binds | B20 |
| binds | B21 |
| binds | B22 |
| binds | B23 |
| binds | B24 |
| binds | B25 |
| binds | B26 |
| binds | B27 |
| binds | B28 |
| binds | B29 |
| binds | B30 |
| binds | B31 |
| binds | B32 |
| binds | B33 |
| binds | B34 |

molecular target: T2, human CD22 protein (recombinant CD22 …); assay: ELISA on recombinant CD22 extracellular domain and/or cell binding

| binding result | Binder |
| --- | --- |
| binds | B1 |
| binds | B2 |
| binds | B3 |
| binds | B4 |
| binds | B5 |
| binds | B6 |
| binds | B7 |
| binds | B8 |
| binds | B9 |
| binds | B10 |
| binds | B11 |
| binds | B12 |
| binds | B13 |
| binds | B14 |
| binds | B15 |
| binds | B16 |
| binds | B17 |

| binding result | Binder |
| --- | --- |
| binds | B18 |
| binds | B19 |
| binds | B20 |
| binds | B21 |
| binds | B22 |
| binds | B23 |
| binds | B24 |
| binds | B25 |
| binds | B26 |
| binds | B27 |
| binds | B28 |
| binds | B29 |
| binds | B30 |
| binds | B31 |
| binds | B32 |
| binds | B33 |
| binds | B34 |
